This note sets out measurements from patent publication US20180291110A1 (Hoffmann-La Roche, published 2018).

Broadly, the koff is the rate constant with which the complex falls apart.

The target in this assay is T1, human transferrin receptor (recombinant, for surface plasmon resonance) (human, UniProt P02786 89-760).
T1 construct: also called huTfR; human transferrin receptor-biotinylated
The experiment in a line: SPR 25C.

Changes are numbered by the printed parent chain.

T1 sequence (P02786 89-760 limits assumed): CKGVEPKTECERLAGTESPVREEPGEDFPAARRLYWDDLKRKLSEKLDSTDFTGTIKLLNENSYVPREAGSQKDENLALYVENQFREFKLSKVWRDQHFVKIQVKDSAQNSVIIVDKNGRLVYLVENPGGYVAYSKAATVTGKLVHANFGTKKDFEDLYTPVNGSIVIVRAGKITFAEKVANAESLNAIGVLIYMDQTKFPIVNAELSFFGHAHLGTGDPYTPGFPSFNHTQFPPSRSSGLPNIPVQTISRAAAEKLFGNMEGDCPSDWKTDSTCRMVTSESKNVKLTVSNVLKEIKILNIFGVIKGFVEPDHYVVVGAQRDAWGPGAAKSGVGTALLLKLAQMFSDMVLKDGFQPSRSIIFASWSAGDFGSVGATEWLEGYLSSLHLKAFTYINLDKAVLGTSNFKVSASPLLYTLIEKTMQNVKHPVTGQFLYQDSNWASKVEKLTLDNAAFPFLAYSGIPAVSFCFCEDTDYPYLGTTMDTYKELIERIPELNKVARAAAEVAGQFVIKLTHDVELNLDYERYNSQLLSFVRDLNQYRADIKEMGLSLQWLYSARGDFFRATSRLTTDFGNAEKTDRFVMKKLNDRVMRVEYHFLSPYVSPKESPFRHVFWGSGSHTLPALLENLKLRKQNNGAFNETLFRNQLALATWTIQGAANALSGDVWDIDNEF

B1: 2/99 VH1/VL1 (antibody, V domains shown)
VH: VQLVETGGGLIQPGGSLRLSCAASGFSLSSYAMSWVRQAPGKGLEWVGYIWSGGSTDYADSVKGRFTISRDNSKNTLYLQMNSLRAEDTAVYYCARRYGTSYPDYGDANGFDPWGQGTLVTVSS
VL: DIQMTQSPSSLSASVGDRVTITCRASQSISSYLNWYQQKPGKAPKLLIYRASSLQSGVPSRFSGSGSGTDFTLTISSLQPEDFATYYCQQSYSSSNVDNTFGGGTKVEIK
As to B1, the dissociation rate constant (koff) was found to be 0.001 s⁻¹.

B2: 2/99 VH5/VL2 (antibody, V domains shown)
VH: B1 VH with V1Q, Q2S, L3M, V4E, Q116P
VL: B1 VL with S53T, Q55A
As to B2, the koff came to 0.00241 s⁻¹.

B3: 2/99 VH8/VL1 (antibody, V domains shown)
VH: QQLVETGGGLIQPGGSLRLSCAASGFSLSSYAMSWVRQAPGKGLEWIGYIWSGGSTDYASWAKGRFTISKTSTTLYLQMNSLRAEDTAVYYCARRYGTSYPDYGDANGFDPWGQGTLVTVSS
VL: B1 VL
With B3, the koff was 0.00319 s⁻¹.

B4: 2/99 VH23-DANG/VL1 (antibody, V domains shown)
VH: QSMQESGPGLVKPSQTLSLTCTVSGFSLSSYAMSWIRQHPGKGLEWIGYIWSGGSTDYASWAKSRVTISKTSTTVSLKLSSVTAADTAVYYCARRYGTSYPDYGDANGFDPWGQGTLVTVSS
VL: B1 VL
For the molecule B4, the koff stood at 0.0028 s⁻¹.

B5: 2/99 VH16/VL2 (antibody, V domains shown)
VH: QQLQESGPGLVKPSETLSLTCTVSGFSLSSYAMSWVRQPPGKGLEWIGYIWSGGSTDYNPSLKSRVTISVDTSKNQVSLKLSSVTAADTAVYYCARRYGTSYPDYGDANGFDPWGPGTLVTVSS
VL: B1 VL with S53T, Q55A
As for B5, the off-rate constant (koff) is 0.00197 s⁻¹.

B6: 2/99 VH1/VL2 (antibody, V domains shown)
VH: B1 VH
VL: B1 VL with S53T, Q55A
Regarding B6, the koff worked out at 0.00286 s⁻¹.

B7: 2/99 VH12/VL2 (antibody, V domains shown)
VH: QVQLQESGPGLVKPSETLSLTCTVSGFSLSSYAMSWIRQPPGKGLEWIGYIWSGGSTDYNPSLKSRVTISVDTSKNQFSLKLSSVTAADTAVYYCARRYGTSYPDYGDANGFDPWGQGTLVTVSS
VL: B1 VL with S53T, Q55A
Take B7: the koff stood at 0.00635 s⁻¹.

B8: 2/99 VH8/VL2 (antibody, V domains shown)
VH: B3 VH
VL: B1 VL with S53T, Q55A
For the molecule B8, the koff was found to be 0.00101 s⁻¹.

B9: 2/99 VH6/VL2 (antibody, V domains shown)
VH: B1 VH with V1Q, V47I
VL: B1 VL with S53T, Q55A
As for B9, the koff was 0.00187 s⁻¹.

B10: 2/99 VH11/VL2 (antibody, V domains shown)
VH: B1 VH with V1Q, V4L, T6S, I11V
VL: B1 VL with S53T, Q55A
Turning to B10, the koff is 0.00385 s⁻¹.

B11: 2/99 VH7/VL2 (antibody, V domains shown)
VH: B1 VH with V1Q, V47I, D60S, S61W, V62A
VL: B1 VL with S53T, Q55A
B11: the koff came to 0.00131 s⁻¹.

B12: 2/99 VH2/VL2 (antibody, V domains shown)
VH: EVQLVETGGGLIQPGGSLRLSCAASGFSLSSYAMSWVRQAPGKGLEWVGYIWSGGSTDYADSVKGRFTISRDNSKNTLYLQMNSLRAEDTAVYYCARRYGTSYPDYGDANGFDPWGQGTLVTVSS
VL: B1 VL with S53T, Q55A
With B12, the koff came to 0.00275 s⁻¹.

B13: 2/99 VH11/VL1 (antibody, V domains shown)
VH: B1 VH with V1Q, V4L, T6S, I11V
VL: B1 VL
Turning to B13, the koff was determined as 0.001 s⁻¹.

B14: 2/99 VH17/VL1 (antibody, V domains shown)
VH: B5 VH with V70K
VL: B1 VL
Regarding B14, the koff is 0.00433 s⁻¹.

B15: 2/99 VH21/VL1 (antibody, V domains shown)
VH: B5 VH with Q2S, L3M, E15Q, V36I, P39H, N59A, P60S, S61W, L62A, P116Q
VL: B1 VL
For the molecule B15, the koff came to 0.00771 s⁻¹.

B16: 2/99 VH16/VL1 (antibody, V domains shown)
VH: B5 VH
VL: B1 VL
Consider B16, for which the koff amounted to 0.00771 s⁻¹.

B17: 2/99 VH13/VL2 (antibody, V domains shown)
VH: B7 VH with F78V
VL: B1 VL with S53T, Q55A
Regarding B17, the koff was determined as 0.00246 s⁻¹.

B18: 2/99 VH22/VL1 (antibody, V domains shown)
VH: B5 VH with Q2S, L3M, E15Q, P39H, N59A, P60S, S61W, L62A, P116Q
VL: B1 VL
For B18, the koff came out at 0.00578 s⁻¹.

B19: 2/99 VH18/VL2 (antibody, V domains shown)
VH: B7 VH with E16Q, P40H, N60A
VL: B1 VL with S53T, Q55A
In the case of B19, the koff worked out at 0.00489 s⁻¹.

B20: 2/99 VH17/VL2 (antibody, V domains shown)
VH: B5 VH with V70K
VL: B1 VL with S53T, Q55A
For B20, the koff was 0.00105 s⁻¹.

B21: 2/99 VH19/VL1 (antibody, V domains shown)
VH: B5 VH with Q2S, L3M, E15Q, V36I, P39H, N59A, V77F, P116Q
VL: B1 VL
B21: the koff worked out at 0.001 s⁻¹.

B22: 2/99 VH9/VL1 (antibody, V domains shown)
VH: B1 VH with V1Q, V4L, T6S, I11V, S27T, L28F, R96K
VL: B1 VL
Regarding B22, the koff is 0.00694 s⁻¹.

B23: 2/99 VH18/VL1 (antibody, V domains shown)
VH: B7 VH with E16Q, P40H, N60A
VL: B1 VL
B23: the koff is 0.001 s⁻¹.

B24: 2/99 VH5/VL1 (antibody, V domains shown)
VH: B1 VH with V1Q, Q2S, L3M, V4E, Q116P
VL: B1 VL
In the case of B24, the koff came to 0.001 s⁻¹.

B25: 2/99 VH20/VL1 (antibody, V domains shown)
VH: B5 VH with Q2S, L3M, E15Q, V36I, P39H, N59A, P116Q
VL: B1 VL
On to B25, for which the koff was 0.001 s⁻¹.

B26: 2/99 VH15/VL1 (antibody, V domains shown)
VH: B5 VH with P116Q
VL: B1 VL
Turning to B26, the koff is 0.00772 s⁻¹.

B27: 2/99 VH7/VL1 (antibody, V domains shown)
VH: B1 VH with V1Q, V47I, D60S, S61W, V62A
VL: B1 VL
For B27, the koff turned out to be 0.00752 s⁻¹.

B28: 2/99 VH12/VL1 (antibody, V domains shown)
VH: B7 VH
VL: B1 VL
B28: the koff is 0.001 s⁻¹.

B29: 2/99 VH13/VL1 (antibody, V domains shown)
VH: B7 VH with F78V
VL: B1 VL
Take B29: the koff amounted to 0.001 s⁻¹.

B30: 2/99 VH2/VL1 (antibody, V domains shown)
VH: B12 VH
VL: B1 VL
As for B30, the koff is 0.001 s⁻¹.

B31: 2/99 VH6/VL1 (antibody, V domains shown)
VH: B1 VH with V1Q, V47I
VL: B1 VL
With B31, the koff stood at 0.001 s⁻¹.

B32: 2/99 VH15/VL2 (antibody, V domains shown)
VH: B5 VH with P116Q
VL: B1 VL with S53T, Q55A
Regarding B32, the koff was found to be 0.00216 s⁻¹.

B33: 2/99 VH0(rb)/VL0(rb) (antibody, V domains shown)
VH: QSMEESGGRLVTPGTPLTLTCTVSGFSLSSYAMSWVRQAPGKGLEWIGYIWSGGSTDYASWAKGRFTISKTSTTVDLKITSPTTEDTATYFCARRYGTSYPDYGDANGFDPWGPGTLVTVSS
VL: AYDMTQTPASVEVAVGGTVTIKCQASQSISSYLSWYQQKPGQRPKLLIYRASTLASGVSSRFKGSGSGTQFTLTISGVECADAATYYCQQCYSSSNVDNTFGGGTEVVVKR
notes: 0 (rb) read as the rabbit parental domains of clone 2/99
With B33, the koff was 0.000434 s⁻¹.
